{
  "source": "paper PMC6044645",
  "target": "Class I polyhydroxyalkanoate synthase (PhaC) from Rhodovulum sulfidophilum (Rhodovulum sulfidophilum)",
  "assay": "SEC",
  "data": [
    {"substance": "Class I polyhydroxyalkanoate synthase (PhaC) from Rhodovulum sulfidophilum (from UniProt A0ABS1RUN8 1-567) (enzyme)", "values": [
      {"measurement": "stoichiometry N", "value": 2}
    ]}
  ]
}
